Assay results as given in patent US20160168266A1 (SBI BIOTECH, published 2016).
Substitutions are numbered along the chain they refer to.

T1: human phospholipase D4 (PLD4) protein (human, UniProt Q96BZ4 1-506)
T1 sequence: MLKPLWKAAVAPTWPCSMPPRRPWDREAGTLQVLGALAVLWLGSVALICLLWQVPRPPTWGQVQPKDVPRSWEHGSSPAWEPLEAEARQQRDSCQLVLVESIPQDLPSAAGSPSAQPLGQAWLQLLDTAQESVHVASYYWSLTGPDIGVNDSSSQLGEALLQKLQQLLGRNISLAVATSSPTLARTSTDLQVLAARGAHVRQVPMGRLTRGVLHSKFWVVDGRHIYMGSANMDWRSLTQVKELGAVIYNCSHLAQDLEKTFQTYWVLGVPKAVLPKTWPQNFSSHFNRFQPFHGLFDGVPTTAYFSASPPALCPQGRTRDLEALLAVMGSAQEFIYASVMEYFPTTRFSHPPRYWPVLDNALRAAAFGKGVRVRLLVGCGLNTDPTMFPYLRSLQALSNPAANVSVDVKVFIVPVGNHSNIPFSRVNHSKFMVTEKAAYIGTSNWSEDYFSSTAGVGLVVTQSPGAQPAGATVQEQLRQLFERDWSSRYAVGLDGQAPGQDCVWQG

B1: chimeric 13D4 antibody (antibody, V domains shown)
VH: DVQLQESGPGLVKPSQSLSLTCSVTGYSITSHYYWTWIRQFPGNKLEWMGYISYDGSNNYNPSLKNRISITRDTSKNQFFLKLNSVTTEDTATYNCAREGPLYYGNPYWYFDVWGAGTTVTVSS
VL: DIQMTQTTSSLSASLGDRVTISCRASQDIDNYLNWYQQKPDGTVKLLIYYTSRLHSGVPSRFSGSGSGTDYSLTISNLEQEDVATYFCQQFNTLPRTFGGGTKLEIKR
B2: anti-PLD4 chimeric 11G9.6 antibody (antibody, human IgG1, kappa, V domains shown)
VH: QVQLQQPGAELVKPGTSVKMSCKASGYTFTSYWMHWVKQRPGQGLEWIGDIYPGSDSTNYNEKFKSKATLTVDTSSSTAYMQLSSLTSEDSAVYYCARGGWLDAMDYWGQGTSVTVSS
VL: B1 VL with D30S, V83I, F91G, R96W
B3: chimeric 13H11 antibody (antibody, V domains shown)
VH: B1 VH with T30S, T36S, K45R
VL: B1 VL with D17G, R18S, V83I
B4: chimeric 3B4 antibody (antibody, V domains shown)
VH: EVQLQQSGTVLSRPGASVTMSCKASGDSFTTYWMHWVKQRPGQGLEWIGAIYPGNSETSYNQKFKGKAKLTAVTSASTAYMEFTSLTNEDSAVYYCTGGYSDFDYWGQGTTLTVSS
VL: DILMTQSPSSMSVSLGDTVSITCHASQGIRSNIGWLQQKPGKSFKGLIFHGTNLEDGVPSRFSGRGSGADYSLTINSLESEDFADYYCVQYVQFPPTFGSGTKLEIRR
B5: anti-PLD4 mouse 8C11 antibody (antibody, mouse IgG2b, V domains shown)
VH: QVQLQQSGAELVKPGASVKLSCKASGYTFTSYYLYWVRQRPGQGLEWIGLINPTNSDTIFNEKFKSKATLTVDKSSSTAYMQLSSLTSEDSAVYYCTREGGYGYGPFAYWGQGTLVTVSA
VL: DVVMTQTPLSLPVSLGDQASISCTSSQTLVHSNGNTYLHWYLQKPGQSPKLLIYKVSNRFSGVPDRFSGSGSGTDFTLKISRVEAEDLGVYFCSHSTHVPFTFGSGTKLEIKR
notes: Mouse IgG2b, kappa monoclonal antibody
B6: chimeric 5B7 antibody (antibody, V domains shown)
VH: EVQLQQSGPELVKPGASVKISCKASGYTFTDYNLHWVKQSHGKSLEWIGYIYPYNGNTGYNQKFKRKATLTVDNSSGTVYMELRSLTSEDSAVYYCARGGIYDDYYDYAIDYWGQGTSVTVSS
VL: DIQMTQSPASLSVSVGETVAITCRASENIYSHIAWYQQKEGKSPQRLVYGATNLAHGVPSRFSGSGSGTQYSLKINSLQSEDFGSYYCQHFWGTPWTFGGGTKLEIKR
B7: anti-PLD4 mouse 10C3 antibody (antibody, mouse IgG2a, V domains shown)
VH: EVQLVESGGDLVRPGGSLKLSCAASGFSFSSYGMSWFRQTPDKRLEWVATISSGGSYIYYPESVKGRFTISRDNARNILYLQMSSLKSEDTAMYYCVRLYGGRRGYGLDYWGQGTSVTVSS
VL: EIVMTQAAFSNPVTLGTSASISCRSSKSLLHSDGITYLYWYLQKPGQSPQLLIYQMSNLASGVPDRFSSSGSGTDFTLRISRVEAEDVGVYYCAQNLELYTFGGGTKLEIKR
notes: Mouse IgG2a, kappa monoclonal antibody
B8: anti-PLD4 mouse 11D10 antibody (antibody, mouse IgG2b, V domains shown)
VH: B7 VH
VL: B7 VL
notes: Mouse IgG2b, kappa monoclonal antibody with the same CDRs as 10C3

Legend:
[1] = biological target: T1, human phospholipase D4 (PLD4) protein; test: cell-based or functional assay
[2] = biological target: T1, human phospholipase D4 (PLD4) protein; test: FACS screening of hybridoma culture supernatant (CAL-1 cells)

Row | Binder | PLD4+ activated B cells after culture of PBMC with CpG2006 and the chimeric antibody, with control Ig treatment taken as 100% [1] | binding result [2]
1 | B1 | 56% | 
2 | B2 | 66.4% | 
3 | B3 | 55.3% | 
4 | B4 | 70.2% | 
5 | B5 |  | binds
6 | B6 | 25.8% | 
7 | B7 |  | binds
8 | B8 |  | binds
